Assay results: patent US20230357364A1 (INTERNATIONAL AIDS VACCINE INITIATIVE, published 2023)
Substitutions are numbered along the chain they refer to.

B1: L6.dP04E05 (antibody, V domains shown)
VH: EVQLVESGGGLVQPGRSLRLSCAASGFTFDDYAMHWVRQAPGKGLEWVSGISWNSDNIGYADSVKGRFTVSRDNAKNSLYLQMNSLRAEDTALYYCTKDIHRKNDYYDILTGYYRVRYYYYAMDVWGQGTTVTVSS
VL: QSVLTQPPSASGSPGQSVTISCTGTSSDAGGYNYVSWYQQHPGKAPKLMIYEVIKRPSGVPDRFSGSKSGNTASLTVSGLQAEDEADYYCSSFAGTSVVFGGGTKLTVL
notes: human IgG1
B2: L6.dP03H10 (antibody, V domains shown)
VH: QVQLVQSGAEVKKPGSSVKVSCKASGGTFSIYAITWVRQAPGQGLEWMGGIIPIIGTANYAQKFQGRVTITADKSTSTAYMELSSLRSEDTAVYYCARDFRYCSSTRCYFWFDPWGQGTLVTVSS
VL: DIQMTQSPSSLSASVGDRVTITCRASQNISSYLNWYQQEAGKAPKLLIYAASSLQSGVPSRFSGSGSGTDFTLTISSLQPEDFATYYCQQSYSTPRTFGQGTKVDIK
B3: L6.dP02E05 (antibody, V domains shown)
VH: QVQLVQSGSELKKPGASVKVSCKASGYTFATYALNWVRQAPGQGLEWMGWVNTNTGSPTYAQGFTGRFVFSFDTSVSTAYLQIRTLKAEDTAVYYCAVYYYDSGSPGWFDPWGQGTLVTVSS
VL: B2 VL with M4L, N28T, I29A, E39K, A40P, K45N, G68V, R96P
notes: human IgG1
B4: L6.dP04A03 (antibody, V domains shown)
VH: QVQLVQSGAEVKKPGSSVKVSCKASGGTFSSSAISWVRQAPGQGLEWMGGIIPILDITNYAQKFQGRVTITADKSTSTAFMELSSLRSEDTAVYYCALRNQWDLLVYWGQGTLVTVSS
VL: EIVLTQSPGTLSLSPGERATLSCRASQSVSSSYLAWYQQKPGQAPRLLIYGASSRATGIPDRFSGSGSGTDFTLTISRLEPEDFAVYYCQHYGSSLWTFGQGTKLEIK
B5: L6.P4A3.1 (antibody, V domains shown)
VH: B4 VH with T28I, T58S, R99T
VL: EIVLTQSPGTLSLSPGERATLSCRASQRVSSSYLAWYQQKPGQAPRLLIYGAESRATGIPDRFSGSGSGTDFTLTISRLEPEDFAVYYCQHYGSSLWTFGQGTKLEIK

Each binder was assayed against SARS-CoV-2 spike V367F (pseudovirus) (SARS-CoV-2, UniProt P0DTC2 14-1273) (assay: cell-based or functional assay).

Question: For B1, which “neutralization IC50” value is on record?
Answer: The value was 0.07 ng/mL.

Question: B2 was tested. Which “neutralization IC50” value did it give?
Answer: Its value is 0.25 ng/mL.

Question: How did the “neutralization IC50” value turn out when B3 was run?
Answer: Its value is 0.04 ng/mL.

Each binder was assayed against SARS-CoV-2 spike V483A (pseudovirus) (SARS-CoV-2, UniProt P0DTC2 14-1273) (assay: cell-based or functional assay).

Question: B1 was tested. Which “neutralization IC50” value did it give?
Answer: Its value is 0.55 ng/mL.

Question: B2 was tested. Which “neutralization IC50” value did it give?
Answer: The value was 1.9 ng/mL.

Question: Which “neutralization IC50” value does the source give for B3 here?
Answer: The value was 3.9 ng/mL.

Question: For B4, which “neutralization IC50” value is on record?
Answer: The value was 160 ng/mL.

Each binder was assayed against T1, SARS-CoV-2 spike D614G (pseudovirus) (SARS-CoV-2, UniProt P0DTC2 14-1273) (assay: cell-based or functional assay).

Question: B1 was tested. Which “neutralization IC50” value did it give?
Answer: Its value is 0.52 ng/mL.

Question: How did the “neutralization IC50” value turn out when B2 was run?
Answer: Its value is 1.9 ng/mL.

Question: Which “neutralization IC50” value does the source give for B3 here?
Answer: The value was 3.9 ng/mL.

Question: Which “neutralization IC50” value does the source give for B4 here?
Answer: Its value is 24 ng/mL.

The binders below were run against SARS-CoV-2 spike G476S (pseudovirus) (SARS-CoV-2, UniProt P0DTC2 14-1273) (assay: cell-based or functional assay).

Question: With B1 as the binder, how does the “neutralization IC50” value read?
Answer: The value was 0.16 ng/mL.

Question: How did the “neutralization IC50” value turn out when B2 was run?
Answer: Its value is 0.08 ng/mL.

Question: For B4, which “neutralization IC50” value is on record?
Answer: Its value is 84 ng/mL.

Target: T1, SARS-CoV-2 spike D614G (pseudovirus)
Assay: cell-based or functional assay
Remark: another data set of the same source

Question: B1 was tested. Which “PSV in HeLa-ACE2 cells IC50” value did it give?
Answer: The value was 8 ng/mL.

Question: B5 was tested. Which “PSV in HeLa-ACE2 cells IC50” value did it give?
Answer: Its value is 13 ng/mL.
